Reference: PMC9897667 (2023)

Legend:
[1] = biological target: human TLR4 (ECD-His Tag, residues 1 to 631) (human, UniProt O00206 24-631); assay: SPR
[2] = biological target: extracellular domain of human RAGE (residues 1 to 344) (human, UniProt Q15109 23-344); assay: SPR
Chain of extracellular domain of human RAGE (residues 1 to 344) (Q15109 23-344): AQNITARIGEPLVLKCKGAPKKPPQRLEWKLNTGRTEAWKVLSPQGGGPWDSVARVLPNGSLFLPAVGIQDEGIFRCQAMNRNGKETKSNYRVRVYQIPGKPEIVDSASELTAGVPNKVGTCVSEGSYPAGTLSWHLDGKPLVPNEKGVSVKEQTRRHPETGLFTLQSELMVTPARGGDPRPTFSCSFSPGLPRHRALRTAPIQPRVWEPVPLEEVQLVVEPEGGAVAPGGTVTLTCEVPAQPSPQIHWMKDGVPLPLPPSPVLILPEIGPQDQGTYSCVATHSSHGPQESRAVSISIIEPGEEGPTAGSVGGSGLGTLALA

Chain of human TLR4 (ECD-His Tag, residues 1 to 631) (O00206 24-631): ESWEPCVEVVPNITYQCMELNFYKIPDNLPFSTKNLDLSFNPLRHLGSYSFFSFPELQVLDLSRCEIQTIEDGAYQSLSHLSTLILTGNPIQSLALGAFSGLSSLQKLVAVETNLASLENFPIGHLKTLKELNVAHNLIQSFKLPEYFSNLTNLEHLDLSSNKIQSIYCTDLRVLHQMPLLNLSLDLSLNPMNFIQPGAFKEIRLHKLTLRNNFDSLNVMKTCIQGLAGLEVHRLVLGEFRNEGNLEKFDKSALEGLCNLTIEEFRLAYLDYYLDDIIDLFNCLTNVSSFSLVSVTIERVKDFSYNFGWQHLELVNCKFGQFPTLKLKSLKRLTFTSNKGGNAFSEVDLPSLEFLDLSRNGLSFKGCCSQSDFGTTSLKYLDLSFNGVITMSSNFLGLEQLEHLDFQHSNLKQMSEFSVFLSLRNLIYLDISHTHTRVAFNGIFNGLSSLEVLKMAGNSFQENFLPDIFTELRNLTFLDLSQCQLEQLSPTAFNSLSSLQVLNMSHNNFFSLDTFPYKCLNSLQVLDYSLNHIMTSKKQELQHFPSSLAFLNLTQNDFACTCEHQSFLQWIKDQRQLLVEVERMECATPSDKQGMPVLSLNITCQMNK

Kd [1]: 18 nM
Kd [2]: 2.7 nM
B1: recombinant human procathepsin L (pCTS-L) (natural protein)
chain: TLTFDHSLEAQWTKWKAMHNRLYGMNEEGWRRAVWEKNMKMIELHNQEYREGKHSFTMAMNAFGDMTSEEFRQVMNGFQNRKPRKGKVFQEPLFYEAPRSVDWREKGYVTPVKNQGQCGSCWAFSATGALEGQMFRKTGRLISLSEQNLVDCSGPQGNEGCNGGLMDYAFQYVQDNGGLDSEESYPYEATEESCKYNPKYSVANDTGFVDIPKQEKALMKAVATVGPISVAIDAGHESFLFYKEGIYFEPDCSSEDMDHGVLVVGYGFESTESDNNKYWLVKNSWGEEWGMGGYVKMAKDRRNHCGIASAASYPTV
